{"source": "paper PMC7794244", "about": "“Development of a structural epitope mimic: an idiotypic approach to HCV vaccine design” (NPJ Vaccines, 2021)", "key": {"MAb ALP98": {"molecular_target": "MAb ALP98", "assay": "ELISA", "settings": "parent: est. 100; read off a plot"}, "[1]": {"molecular_target": "AP33 heavy chain mutant T97 (human-mouse chimeric AP33, residue changed to alanine) (mouse | human)", "assay": "ELISA"}, "[2]": {"molecular_target": "AP33 light chain mutant Y28 (human-mouse chimeric AP33, residue changed to alanine) (mouse | human)", "assay": "ELISA"}, "[3]": {"molecular_target": "AP33 light chain mutant N30 (human-mouse chimeric AP33, residue changed to alanine) (mouse | human)", "assay": "ELISA"}, "[4]": {"molecular_target": "AP33 light chain mutant N92 (human-mouse chimeric AP33, residue changed to alanine) (mouse | human)", "assay": "ELISA"}, "[5]": {"molecular_target": "AP33 heavy chain mutant Y53 (human-mouse chimeric AP33, residue changed to alanine) (mouse | human)", "assay": "ELISA"}, "[6]": {"molecular_target": "AP33 light chain mutant V93 (human-mouse chimeric AP33, residue changed to alanine) (mouse | human)", "assay": "ELISA"}, "[7]": {"molecular_target": "AP33 light chain mutant D94 (human-mouse chimeric AP33, residue changed to alanine) (mouse | human)", "assay": "ELISA"}, "[8]": {"molecular_target": "AP33 heavy chain mutant I95 (human-mouse chimeric AP33, residue changed to alanine) (mouse | human)", "assay": "ELISA"}, "[9]": {"molecular_target": "broadly neutralizing anti-E2 murine monoclonal antibody AP33 (IgG)", "assay": "competition ELISA", "settings": "peptide 10 µg/ml (highest concentration); binding to E2661 read; parent: est. 5; read off a plot"}, "[10]": {"molecular_target": "soluble HCV E2 that lacks the transmembrane domain (E2_(661)), monomeric (Hepatitis C virus genotype 1a strain …, UniProt P27958)", "assay": "SPR", "settings": "both partners purified"}}, "data": [{"molecule": "E2 WT I414A", "values": [{"measurement": "percent of parent", "setting": "MAb ALP98", "result": 96, "unit": "%"}]}, {"molecule": "E2 WT S424A", "values": [{"measurement": "percent of parent", "setting": "MAb ALP98", "result": 96, "unit": "%"}]}, {"molecule": "E2 (as tested on wild type and mutant AP33 in Table 1) (from UniProt P27958 384-746) (natural protein)", "values": [{"measurement": "Relative strength of binding (%) (% of binding to WT AP33)", "setting": "[1]", "result": 101}, {"measurement": "Relative strength of binding (%) (% of binding to WT AP33)", "setting": "[2]", "result": 112}, {"measurement": "Relative strength of binding (%) (% of binding to WT AP33)", "setting": "[3]", "result": 89}, {"measurement": "Relative strength of binding (%) (% of binding to WT AP33)", "setting": "[4]", "result": 60}, {"measurement": "Relative strength of binding (%) (% of binding to WT AP33)", "setting": "[5]", "result": 100}, {"measurement": "Relative strength of binding (%) (% of binding to WT AP33)", "setting": "[6]", "result": 79}, {"measurement": "Relative strength of binding (%) (% of binding to WT AP33)", "setting": "[7]", "result": 74}, {"measurement": "Relative strength of binding (%) (% of binding to WT AP33)", "setting": "[8]", "result": 10}]}, {"molecule": "E2 412-423 WT peptide W420R", "values": [{"measurement": "other: E2 Binding (%) remaining after peptide competition", "setting": "[9]", "result": 86, "unit": "%"}]}, {"molecule": "broadly neutralizing anti-E2 murine monoclonal antibody AP33 (IgG) (antibody, V domains shown) VH: EVQLQESGPSLVKPSQTLSLTCSVTGDSITSGYWNWIRKFPGNKLEYMGYISYSGSTYYNLSLRSRISITRDTSKNQYYLQLNSVTTEDTATYYCALITTTTYAMDYWGQGTSVTVSS VL: NIVLTQSPVSLAVSLGQRATISCRASESVDGYGNSFLHWFQQKPGQPPKLLIYLASNLNSGVPARFSGSGSRTDFTLTIDPVEADDAATYYCQQNNVDPWTFGGGTKLEIK", "values": [{"measurement": "Kd", "setting": "[10]", "result": 3.4, "unit": "nM"}, {"measurement": "koff", "setting": "[10]", "result": 0.000542, "unit": "s⁻¹"}, {"measurement": "kon", "setting": "[10]", "result": 160000, "unit": "M⁻¹ s⁻¹"}]}]}
